± gives the standard deviation of the averaged measurements.
Tested on: ATP
Assay: switch fluorescence ratio, 500 uM ATP over buffer (Cy3 cluster intensity, sum of 5 cycles each) (fold (ratio)); higher = stronger signal-on switching upon ATP binding; sequences stand for … in TCGTCGGCAGCGTCAGATGTGTATAAGAGACAGTTTTTTTTTTTTTTTTTTTTTTTTT…TC
Conditions: aptamer strand: ATP DNA aptamer (quencher-CACCTGGGGGAGTATTGCGGAGGAAGG + anchor), 100 nM annealed; ATP concentration: 500 uM
Summary of the method: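 Cy3-labelled switching-strand clusters on a modified Illumina MiSeq flow-cell were annealed to 100 nM quencher-labelled ATP aptamer, imaged in selection buffer, then imaged after 15 min with 500 uM ATP at 22 °C. Five buffer/ATP cycles ran, with NaOH stripping and re-annealing between them. The fluorescence ratio is summed target-cycle over summed buffer-cycle Cy3 intensity per cluster, averaged per switch-domain sequence. Clusters outside 100-1000 RFU were excluded.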
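Note: ATP exposure 15 min at 22 °C before imaging.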

| Sequence | switch fluorescence ratio |
| --- | --- |
| TGAAGGCTTA | 0.994 ± 0.024 |
| TGAAGGGGCA | 0.951 ± 0.041 |
| TGAAGGTCGG | 0.9917 ± 0.0039 |
| TGAATAGGGG | 0.989 ± 0.0095 |
| TGAATCAACA | 1.04 ± 0.037 |
| TGAATGACGT | 0.972 ± 0.04 |
| TGAATGAGTT | 1.02 ± 0.03 |
| TGAATGATC | 1 ± 0.043 |
| TGAATGGGCA | 0.973 ± 0.024 |
| TGAATGTTGG | 0.988 ± 0.025 |
| TGAATTATTT | 1.02 ± 0.035 |
| TGAATTGGGG | 1.06 ± 0.084 |
| TGAATTTTTA | 1 ± 0.011 |
| TGAATTTTTT | 0.993 ± 0.028 |
| TGACAGTATC | 1.08 ± 0.011 |
| TGACAGTGGG | 0.959 ± 0.04 |
| TGACATAGGA | 1.001 ± 0.0029 |
| TGACATCGGG | 1.01 ± 0.033 |
| TGACCATTGC | 1.093 ± 0.0059 |
| TGACCCTTTT | 1 ± 0.077 |
| TGACCGGAGT | 1.03 ± 0.033 |
| TGACCTGAGA | 1.04 ± 0.021 |
| TGACCTGGCT | 1.04 ± 0.035 |
| TGACGAAGGG | 0.987 ± 0.023 |
| TGACGATAGG | 0.995 ± 0.013 |
| TGACGGGGCG | 1.03 ± 0.05 |

| Sequence | switch fluorescence ratio |
| --- | --- |
| TGACGGGGGG | 1.06 ± 0.12 |
| TGACGGGGGT | 0.989 ± 0.028 |
| TGACGGGGTG | 1.01 ± 0.044 |
| TGACGGTGGG | 0.962 ± 0.023 |
| TGACGTAAGG | 0.994 ± 0.026 |
| TGACTGAAGG | 0.9503 ± 0.0065 |
| TGACTGTATT | 1.14 ± 0.042 |
| TGACTTTGAT | 0.95 ± 0.013 |
| TGAGAAAATT | 1.017 ± 0.0034 |
| TGAGAGACGG | 0.968 ± 0.063 |
| TGAGAGGATC | 1.018 ± 0.0025 |
| TGAGAGGCGT | 1.022 ± 0.0098 |
| TGAGATAAAG | 0.967 ± 0.001 |
| TGAGATAGCT | 0.998 ± 0.033 |
| TGAGATGCGG | 1.03 ± 0.038 |
| TGAGATGGTT | 1.01 ± 0.029 |
| TGAGATTCTG | 1.05 ± 0.043 |
| TGAGCACCGT | 1 ± 0.017 |
| TGAGCACGGG | 1.03 ± 0.02 |
| TGAGCCTGCT | 0.98 ± 0.012 |
| TGAGCGGTCA | 0.99 ± 0.015 |
| TGAGCTAGCT | 1.01 ± 0.033 |
| TGAGCTGAGG | 0.957 ± 0.049 |
| TGAGCTGGGG | 0.996 ± 0.02 |
| TGAGGATTTT | 1.05 ± 0.1 |
| TGAGGCATGT | 1.05 ± 0.036 |

| Sequence | switch fluorescence ratio |
| --- | --- |
| TGAGGCGGGG | 0.9642 ± 0.0059 |
| TGAGGGAGCA | 1.01 ± 0.11 |
| TGAGGGAGTG | 0.996 ± 0.021 |
| TGAGGGCATT | 1 ± 0.012 |
| TGAGGGGCGC | 0.988 ± 0.028 |
| TGAGGGGTGA | 1.01 ± 0.029 |
| TGAGGGTTTA | 0.991 ± 0.017 |
| TGAGGTATCT | 1.007 ± 0.0091 |
| TGAGGTGCGG | 0.996 ± 0.024 |
| TGAGGTTAAC | 0.957 ± 0.023 |
| TGAGGTTCGA | 0.98 ± 0.03 |
| TGAGTGAGTG | 0.9933 ± 0.0015 |
| TGAGTGGCTT | 0.967 ± 0.034 |
| TGAGTGGGGA | 1 ± 0.013 |
| TGAGTGGGGT | 1.02 ± 0.031 |
| TGAGTTAGGG | 0.985 ± 0.017 |
| TGAGTTTCCA | 0.958 ± 0.011 |
| TGAGTTTCTG | 0.968 ± 0.014 |
| TGAGTTTTAC | 1.04 ± 0.03 |
| TGATAACCGC | 1.1 ± 0.039 |
| TGATAAGAGT | 1.01 ± 0.011 |
| TGATAAGTG | 0.9877 ± 0.0016 |
| TGATAATGTT | 0.997 ± 0.014 |
| TGATAGAGGA | 0.988 ± 0.059 |
| TGATAGGGTC | 1.06 ± 0.11 |
| TGATAGTGAT | 0.988 ± 0.024 |

| Sequence | switch fluorescence ratio |
| --- | --- |
| TGATAGTTGA | 1.005 ± 0.0026 |
| TGATATAGCA | 1.03 ± 0.013 |
| TGATATCCGA | 1.04 ± 0.013 |
| TGATATTGG | 0.971 ± 0.045 |
| TGATATTTCT | 1 ± 0.011 |
| TGATCAAATG | 0.989 ± 0.023 |
| TGATCACACG | 1.024 ± 0.01 |
| TGATCAGGGG | 1.03 ± 0.021 |
| TGATCCTTGG | 1.03 ± 0.031 |
| TGATCGTCGG | 1.02 ± 0.013 |
| TGATCTAGGC | 0.98 ± 0.074 |
| TGATCTTTCT | 1.01 ± 0.059 |
| TGATGACCAT | 1.006 ± 0.0079 |
| TGATGATGAC | 1.01 ± 0.0038 |
| TGATGATGAG | 0.996 ± 0.013 |
| TGATGATTTC | 1.009 ± 0.009 |
| TGATGGCATT | 0.9893 ± 0.0071 |
| TGATGGCCCG | 1.03 ± 0.092 |
| TGATGGCGTT | 1 ± 0.031 |
| TGATGGGGCT | 0.975 ± 0.038 |
| TGATGGGTAT | 1 ± 0.028 |
| TGATGGGTTG | 1 ± 0.03 |
| TGATGTTAGC | 1.03 ± 0.036 |
| TGATGTTGTC | 0.988 ± 0.033 |
| TGATTAATGT | 0.9996 ± 0.0099 |
| TGATTAGTCG | 1.01 ± 0.023 |

| Sequence | switch fluorescence ratio |
| --- | --- |
| TGATTATTGG | 1 ± 0.061 |
| TGATTCAGGG | 1.028 ± 0.0081 |
| TGATTCTCGT | 1.02 ± 0.018 |
| TGATTGAAGC | 1.03 ± 0.032 |
| TGATTGAGTT | 1 ± 0.016 |
| TGATTGGCTG | 1.02 ± 0.045 |
| TGATTGGGGG | 0.989 ± 0.031 |
| TGATTGGGTA | 1 ± 0.019 |
| TGATTGGGTG | 1.01 ± 0.054 |
| TGATTGTAAT | 0.9655 ± 0.0069 |
| TGATTGTGCG | 0.957 ± 0.021 |
| TGATTTAGGC | 0.9803 ± 0.009 |
| TGATTTGGCA | 1.02 ± 0.0023 |
| TGATTTGGCT | 1.02 ± 0.031 |
| TGATTTTAAG | 0.999 ± 0.018 |
| TGATTTTAGA | 0.974 ± 0.052 |
| TGATTTTTAT | 1.011 ± 0.0089 |
| TGATTTTTTA | 0.992 ± 0.025 |
| TGCAAAGGGC | 1.01 ± 0.015 |
| TGCAACCTTG | 1.0397 ± 0.0007 |
| TGCAACCTTT | 1.02 ± 0.014 |
| TGCAACGGGT | 1.02 ± 0.018 |
| TGCAACTTTT | 1.01 ± 0.019 |
| TGCAAGAAGG | 0.9832 ± 0.0053 |
| TGCAAGCGAC | 2.61 ± 0.18 |
| TGCAAGTGAA | 0.997 ± 0.053 |

| Sequence | switch fluorescence ratio |
| --- | --- |
| TGCAAGTTTT | 1.24 ± 0.33 |
| TGCAATGTAG | 1.082 ± 0.0029 |
| TGCAATTCAG | 1.14 ± 0.012 |
| TGCAATTTTT | 1.04 ± 0.077 |
| TGCACACGTG | 0.9787 ± 0.0068 |
| TGCACCTTGG | 1.014 ± 0.0099 |
| TGCACTGGGA | 1.04 ± 0.034 |
| TGCAGAAGGT | 0.992 ± 0.03 |
| TGCAGATTTC | 0.9978 ± 0.0088 |
| TGCAGCAGGT | 1.18 ± 0.025 |
| TGCAGCATGA | 1.333 ± 0.008 |
| TGCAGCATTA | 2.31 ± 0.19 |
| TGCAGCTGTA | 1.04 ± 0.014 |
| TGCAGGGACG | 1 ± 0.03 |
| TGCAGGGCAA | 1.02 ± 0.044 |
| TGCAGGGCGT | 1.01 ± 0.031 |
| TGCAGGGGTC | 1.02 ± 0.025 |
| TGCAGTCTAG | 1.07 ± 0.15 |
| TGCAGTTTTT | 0.999 ± 0.029 |
| TGCATACGGC | 1.04 ± 0.07 |
| TGCATAGGGA | 1.01 ± 0.035 |
| TGCATGAAGC | 1.034 ± 0.0057 |
| TGCATGATCG | 1.02 ± 0.033 |

— the supplement of paper PMC10126150
